Consider two substances from patent US9499608.

The target of test [1] is WNV E ectodomain (residues 1-404) of the New York 1999 strain, expressed in E. coli and refolded (West Nile virus, New York 1999 strain) (UniProt Q9Q6P4). Description: SPR. For orientation: Surface plasmon resonance follows binding to a sensor surface in real time, without labels.
Test [2] deals with WNV DIII fragment (residues 296-404) of the New York 1999 strain, expressed in E. coli and refolded (West Nile virus, New York 1999 strain) (UniProt Q9Q6P4). Description: SPR.

By Kd is commonly meant the equilibrium constant for the complex coming apart. A low value points to tighter binding. In the case of “mHu-E16 (mammalian CHO cell-produced humanized E16 monoclonal antibody)”, the Kd in test [1] was found to be 45 nM; in test [2], 32 nM.

“pHu-E16 (plant-produced humanized E16 monoclonal antibody against West Nile virus)”: the results for the Kd in test [1] and in test [2] were 46 nM and 41 nM, respectively.
